Data set [1] can be described thus: Thermal denaturation monitored by CD spectroscopy. The format is physicochemical. Particulars: for thermal unfolding temperature / thermal stability: CD at 222 or 220 nm, 1°C/min, 10 mM potassium phosphate pH 7.4; for change of thermal stability upon RCL cleavage: elastase-cleaved vs uncleaved, CD-monitored. The protocol:
Heat-induced unfolding transitions were recorded at protein concentrations between 0.5 and 0.7 µM in 10 mM potassium phosphate (pH 7.4). The samples were heated at a rate of 1°C/min in a 1 cm cell and the ellipticity was monitored at 222 or 220 nm. The sensitivity was set to 50 mdeg with a bandwidth of 1 nm and 8 sec response time.

The next data set concerns the target T1, Rat CBG-WT (Rattus norvegicus, UniProt P31211).
T1 construct: residues 5 to 374 of rat CBG (P31211); GST (N, cleaved yes); made in house; host or cells: E. coli BL21 Star (DE3)
T1 sequence (P31211 27-396): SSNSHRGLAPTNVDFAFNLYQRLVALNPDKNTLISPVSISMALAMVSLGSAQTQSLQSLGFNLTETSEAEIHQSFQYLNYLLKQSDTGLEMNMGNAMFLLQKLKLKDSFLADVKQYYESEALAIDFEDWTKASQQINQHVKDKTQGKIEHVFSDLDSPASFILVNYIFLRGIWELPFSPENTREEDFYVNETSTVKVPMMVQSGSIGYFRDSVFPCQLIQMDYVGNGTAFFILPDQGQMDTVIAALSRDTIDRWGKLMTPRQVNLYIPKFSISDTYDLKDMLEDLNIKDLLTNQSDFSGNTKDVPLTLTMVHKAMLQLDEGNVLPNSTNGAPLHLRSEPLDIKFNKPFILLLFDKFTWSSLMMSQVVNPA
In words: Isothermal titration calorimetry, steroid titrated to rat CBG-WT. The format is binding. Particulars: ITC, 25°C. The protocol: The coding sequences of residues 11 to 383 of human CBG (Swiss-Prot entry P08185) and residues 5 to 374 of rat CBG (P31211) were cloned into a pGEX-2T vector (GE Healthcare, Uppsala), yielding N-terminal glutathione-S-transferase (GST) fusion proteins. Mutations were introduced using a two-stage PCR procedure based on the QuikChange (Stratagene, Santa Clara) site-directed mutagenesis protocol. All experiments with human CBG were conducted with a mutant in which surface residue Lys126 was replaced by alanine in order to facilitate crystallization. Wild-type rat CBG (rat CBG-WT) and rat CBG mutants CBG-RCL1, CBG-RCL2 and CBG-RCL3 were produced to probe the function of the RCL residues in rat CBG. All gene constructs were confirmed by DNA sequencing prior to protein production.
The GST-tagged human and rat CBG variants were produced in E. coli BL21 Star™ (DE3) cells (Invitrogen, Carlsbad) using the ZYM-5052 auto-inducing medium. For each variant, 10 L of ZYM-5052 medium containing 100 µg/mL ampicillin were inoculated with an overnight culture of a single clone. The flasks were incubated at 37°C until the optical density at 600 nm reached 0.3. The temperature was then lowered to 20°C, and the cells were allowed to grow for an additional 20 h. The pellet was resuspended in PBS buffer (pH 7.4) containing 5 mM EDTA after cell harvesting (4 mL of buffer per gram of pellet).
The protein samples were dialyzed against ITC buffer (20 mM potassium phosphate, 50 mM NaCl, pH 7.4) and titrated with steroids in a VP-ITC microcalorimeter (Microcal, Piscataway). All solutions were filtered (0.2 µm filter pore size) and degassed for 30 min prior to the titration experiments. The sample cell was filled with protein solution containing 15 µM rat CBG or 20 µM human CBG and titrated with steroid solutions containing 150 µM and 200 µM ligand, respectively. The titrations consisted of an initial injection of 2 µL followed by 25 consecutive injections of 10 µL ligand solution at 25°C. A spacing of 240 sec between the injections was used to allow a return to the baseline. Data points from the initial injection, which are generally affected by diffusion during the initial equilibration period after experiment setup, were discarded prior to data analysis. […] The binding curve was generated by plotting the heats of injections against the ratio of ligand to protein in the cell. Integrated heat data were analyzed using nonlinear regression fit with a one-site-binding model in the Origin-7™ software provided with the VP-ITC. Changes in the free energy and entropy can be calculated using the equation: ΔG° = −RTlnK = ΔH°−TΔS°. In this equation ΔG° is the change in Gibbs free energy, R the universal gas constant, T the temperature, and K the association constant. The change in enthalpy is denoted as ΔH°, and ΔS° is the change in entropy under standard conditions. The data shown in Table 2 were obtained from single titrations of each complex.

Positions count from the first letter of the chain named. Names may count otherwise.

As for “uncleaved human alpha-1-antitrypsin: human alpha-1-antitrypsin, archetypical member of the SERPIN family, used to validate the setup”, in data set [1], the “thermal unfolding temperature / thermal stability” value is “about 60 °C”.

For orientation: Kd means the free concentration of one partner at which half of the binding sites on the other are occupied at equilibrium, for simple one-to-one binding. With `C[C@]12C[C@H](O)[C@H]3[C@@H](CCC4=CC(=O)CC[C@@]43C)[C@@H]1CC[C@@H]2C(=O)CO` [Corticosterone], on Rat CBG-WT (rat CBG-WT), the “TΔS°” value was -14.6 kcal/mol, the “ΔG°” value is -10.2 kcal/mol and the “ΔH°” value is -24.76 kcal/mol. The molecule also showed an equilibrium dissociation constant (Kd) on Rat CBG-WT (single titration, uncleaved rat CBG-WT) of 37 ± 2 nM.

For “cleaved human alpha-1-antitrypsin: human alpha-1-antitrypsin after cleavage of the RCL”, the “thermal unfolding temperature / thermal stability” value in data set [1] was found to be 90 °C.

B1: CBG-RCL2: rat CBG variant CBG-RCL1 plus mutations P329T and N333T (protein, UniProt P31211 23-396, looked up, variant A335V P336T P329T N333T)
Corticosteroid-binding …: STNESSNSHRGLAPTNVDFAFNLYQRLVALNPDKNTLISPVSISMALAMVSLGSAQTQSLQSLGFNLTETSEAEIHQSFQYLNYLLKQSDTGLEMNMGNAMFLLQKLKLKDSFLADVKQYYESEALAIDFEDWTKASQQINQHVKDKTQGKIEHVFSDLDSPASFILVNYIFLRGIWELPFSPENTREEDFYVNETSTVKVPMMVQSGSIGYFRDSVFPCQLIQMDYVGNGTAFFILPDQGQMDTVIAALSRDTIDRWGKLMTPRQVNLYIPKFSISDTYDLKDMLEDLNIKDLLTNQSDFSGNTKDVPLTLTMVHKAMLQLDEGNVLTNSTTGVTLHLRSEPLDIKFNKPFILLLFDKFTWSSLMMSQVVNPA
As to B1, the “change of thermal stability upon RCL cleavage” value in data set [1] is on record as “neither of these humanized rat CBG variants displayed an increased thermal stability”.

B2: CBG-RCL3: rat CBG variant CBG-RCL2 plus R174K, D323N, G325E and N326G (protein, UniProt P31211 23-396, looked up, variant A335V P336T P329T N333T R174K D323N G325E N326G)
Corticosteroid-binding …: B1 Corticosteroid-binding … with R174K, D323N, G325E, N326G
Take B2: the “change of thermal stability upon RCL cleavage” value in data set [1] is given as “neither of these humanized rat CBG variants displayed an increased thermal stability”.

The values above are taken from article PMC3530532, “Corticosteroid-Binding Globulin: Structure-Function Implications from Species Differences” (PLoS ONE, 2012).
